From the supplement of paper PMC10126150
± gives the standard deviation of the averaged measurements.

These sequences were tested on ATP (assay: switch fluorescence ratio, 500 uM ATP over buffer (Cy3 cluster intensity, sum of 5 cycles each) (fold (ratio)); higher = stronger signal-on switching upon ATP binding; sequences stand for … in TCGTCGGCAGCGTCAGATGTGTATAAGAGACAGTTTTTTTTTTTTTTTTTTTTTTTTT…TC). Conditions: aptamer strand: ATP DNA aptamer (quencher-CACCTGGGGGAGTATTGCGGAGGAAGG + anchor), 100 nM annealed; ATP concentration: 500 uM.
Outline: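 Switching-strand clusters labelled with Cy3 on a modified Illumina MiSeq flow-cell were annealed to 100 nM quencher-labelled ATP aptamer, imaged in selection buffer, and re-imaged after 15 min with 500 uM ATP at 22 °C. This was done over five cycles with NaOH stripping and re-annealing in between. The fluorescence ratio is summed target-cycle over summed buffer-cycle Cy3 intensity per cluster, averaged per switch-domain sequence, excluding clusters outside 100-1000 RFU.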
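Further: ATP exposure 15 min at 22 °C before imaging.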

Point of comparison: AGACCGAGTT, switch fluorescence ratio 1.08 ± 0.096. Against it:
- GAGGGTAATC — within error, 1.004 ± 0.01
- AATAAACAGC — within error, 1.006 ± 0.0078
- CTTTAACGTT — within error, 0.981 ± 0.0073
- AGGTCTGAAA — within error, 1.04 ± 0.042
- CGGCTGTGGT — within error, 1.01 ± 0.03
- CCCAATCGGT — within error, 1.05 ± 0.027
- TCTTTAAAGT — within error, 1.04 ± 0.083
- GGGGCATGCA — within error, 0.9897 ± 0.0081
- TGGAAGGAGC — within error, 1.07 ± 0.049
- CCTGGGCCTT — within error, 1.01 ± 0.025
- GCTGATTGGC — within error, 1.05 ± 0.13
- TGATGGTTTA — within error, 0.996 ± 0.03
- GGTGACTGGG — lower, 0.903 ± 0.042
- TAAGAGTACA — within error, 1.07 ± 0.011
- TTGCTGGTCA — within error, 0.9897 ± 0.0042
- TTGCAAGTTT — lower, 0.9811 ± 0.00083
- GGCTGACATT — within error, 0.979 ± 0.046
- GCTCTGTTTT — within error, 1 ± 0.011
- TTGTGGGTAC — within error, 1.0042 ± 0.0004
- TATAGCAGGG — within error, 1.03 ± 0.018
- GTGGGAATTA — within error, 0.996 ± 0.025
- TCTGGTTGGT — within error, 1.01 ± 0.051
- TAGCTTGGGG — within error, 0.9985 ± 0.0046
- AAACACAGGG — within error, 1.07 ± 0.063
- TTTCTGGCTT — within error, 1.02 ± 0.051
- AGATTAATTG — within error, 0.994 ± 0.008
- TTTGAA — lower, 0.9556 ± 0.0024
- CCGTGTGACT — the same, 1.08 ± 0.042
- TTGAGGGATG — within error, 0.992 ± 0.013
- TTTTATGGCG — within error, 1.04 ± 0.0024
- ATAATTAGTA — lower, 0.9455 ± 0.0079
- GATAGGAAGG — within error, 0.964 ± 0.052
- ATGTTACCGG — within error, 1.054 ± 0.0038
- CAGGTGAGAA — within error, 1.16 ± 0.026
- TACGGGGCTG — within error, 1.01 ± 0.11
- AGAGGGCCAT — within error, 0.9972 ± 0.0021
- GAATAAGGGA — within error, 1 ± 0.014
- TGCTCTTAGT — within error, 1.04 ± 0.079
- AGGGGGGCGG — within error, 0.992 ± 0.039
- GGCATGTGCG — within error, 1.02 ± 0.031
- TGTGGCGACG — lower, 0.957 ± 0.012
- CAATCAACCG — within error, 1.064 ± 0.0015
- TTTTCAAGAG — within error, 1.019 ± 0.01
- GGATAGGTAC — within error, 1.05 ± 0.04
- AGGATGGTTT — within error, 1.002 ± 0.0077
- TTCATCTCGC — within error, 1.1 ± 0.1
- GTTTGTAAGT — within error, 1.01 ± 0.045
- CGAGTTTTTG — within error, 0.979 ± 0.014
- AGAATTATTG — within error, 0.9936 ± 0.0079
- AAAGGGTTGT — within error, 1.009 ± 0.009
- GAGGGCGTAA — within error, 1.06 ± 0.035
- GGCATAGATT — within error, 0.976 ± 0.066
- CCGTTTTTGG — within error, 0.993 ± 0.016
- CCCTATATAG — within error, 1.01 ± 0.011
- GGGGTCATTT — within error, 0.979 ± 0.027
- CAATCTTCGT — within error, 1.02 ± 0.021
- TAAGGCGTTA — within error, 0.985 ± 0.031
- AAGAGGCTGG — within error, 0.99 ± 0.024
- TTTATGAGCT — within error, 1.03 ± 0.014
- ATAGTAGGTT — within error, 1.01 ± 0.017
- AGAATCGTTG — within error, 1.005 ± 0.0072
- CGAGGGCTGA — within error, 1.02 ± 0.015
- TTTTTCTAAT — within error, 1.03 ± 0.071
- CTAGGAGGCG — within error, 1.03 ± 0.053
- TATATGTATC — lower, 0.9678 ± 0.0011
- TGGTGGGGGC — within error, 1 ± 0.052
- CGGGGGAAGC — within error, 1.02 ± 0.041
- TCTAATGGAA — within error, 1.01 ± 0.018
- AGTTTGGTTG — within error, 0.991 ± 0.053
- ATTGTCTTGA — lower, 0.9688 ± 0.0015
- AATTAATAAG — within error, 1.011 ± 0.0076
- AAGTCTAAGG — within error, 0.964 ± 0.05
- GGGGTAAGTA — within error, 0.986 ± 0.027
- GGGTGAAAAG — within error, 1.04 ± 0.033
- TAGGATCGGA — within error, 0.96 ± 0.032
- TTATAGGCGG — within error, 0.981 ± 0.016
- AATTAGGTGA — within error, 1.04 ± 0.031
- AGTTGCTTTT — within error, 0.993 ± 0.036
- TCATGGGGTA — lower, 0.9617 ± 0.004
- GGGGGGTTAC — within error, 1.42 ± 1
- CCGTGTATGT — within error, 1.045 ± 0.0062
- TTTTGGTTAC — within error, 1.04 ± 0.055
- CCCGGGGGT — within error, 1.13 ± 0.2
- AGTAGTATCT — within error, 0.981 ± 0.03
- GACGTTTTGC — within error, 1.073 ± 0.0083
- CGTTGTTATG — within error, 0.9852 ± 0.0067
- ATGTGTGGCT — within error, 1.01 ± 0.022
- GGCATTAATT — within error, 1.01 ± 0.048
- TAGCCTAATG — within error, 1.0049 ± 0.00065
- ATCTGCTCTT — within error, 1.01 ± 0.04
- TCAATAGTAC — the same, 1.084 ± 0.0024
- CGGATTGTAG — within error, 1.03 ± 0.04
- TTGTTTTAGT — within error, 1.06 ± 0.067
- CCGGCGGGG — within error, 1.04 ± 0.027
- AGCGAGTGTG — within error, 1 ± 0.026
- TTTTATGACA — within error, 1.02 ± 0.033
- CGATTGGGGT — within error, 1.02 ± 0.034
- TGTAACCTTT — within error, 1.04 ± 0.018
- TTTTCAACCA — within error, 1.06 ± 0.043
- CGATTTGGGC — within error, 0.982 ± 0.021
- TTTTGAGATC — within error, 1.04 ± 0.045
- AGGAGGCTTC — within error, 0.983 ± 0.029
- AAGGGCGTAT — within error, 1.01 ± 0.02
- ACAGAAGGGT — within error, 0.972 ± 0.098
- GGTATATGTG — within error, 1 ± 0.025
- AGGACAAAGG — within error, 0.989 ± 0.041
- ATTAGTGGCA — within error, 0.982 ± 0.013
- CTGATAAAGT — within error, 0.9922 ± 0.0082
- TTTATAAAAA — within error, 0.998 ± 0.026
- GTTAGATGGT — within error, 0.9851 ± 0.0037
- TACTTCTTTT — lower, 0.958 ± 0.015
- ATATGAGGCG — within error, 1.05 ± 0.042
- TTAAGTATGT — the same, 1.08 ± 0.089
- TAAACTCCTT — within error, 1.05 ± 0.035
- CAGGTTAATT — within error, 1.02 ± 0.044
- TAGAGTGGGG — within error, 0.994 ± 0.023
- GGCATTTTTG — within error, 1.03 ± 0.015
- GTTTGGGATT — within error, 1 ± 0.024
- ATTGGGGGGT — within error, 0.988 ± 0.015
- GGTGGCTTTT — within error, 1.02 ± 0.099
- AGTTGGGTGC — within error, 0.99 ± 0.018
- ACATACTGCG — higher, 1.323 ± 0.0038
- TATTGCTTCA — within error, 1.03 ± 0.016
- CGGGGATTAG — within error, 0.994 ± 0.017
- CCGAATTTT — within error, 1.02 ± 0.037
- ATTTCAGTAG — within error, 1.016 ± 0.0019
- TCGGGCTGGG — within error, 1.03 ± 0.0069
- CTATTCTTGG — lower, 0.9524 ± 0.006
- TTAAAACGAA — within error, 1.01 ± 0.024
- AGGGGGCATT — within error, 0.98 ± 0.011
- CATCGGTAGA — within error, 1.02 ± 0.017
- TGGGCAGGGC — within error, 1.04 ± 0.058
- ACAGTGGGAA — within error, 1.014 ± 0.0044
- AGTCGGACTT — within error, 0.993 ± 0.01
- ATAGGGTGCG — within error, 1 ± 0.03
- AGCAATGTCT — higher, 1.26 ± 0.065
- TGGTTTAAGT — within error, 0.987 ± 0.027
- TTGGGTTTTC — within error, 1.03 ± 0.065
- GCGAGAGCTA — lower, 0.9602 ± 0.0021
- ACGCGGCGTG — within error, 0.982 ± 0.03
- TTTCGGTTGT — within error, 1 ± 0.022
- AAAATCGGGA — within error, 1 ± 0.035
- GGTTGGGGTG — within error, 1.01 ± 0.037
- CGTTTACTTT — within error, 0.984 ± 0.059
- AGTAGTTGCC — within error, 1.014 ± 0.0021
- TAATATGGGT — within error, 0.988 ± 0.023
- GACAATAGGC — within error, 1.1 ± 0.045
- ACATGTGGGG — within error, 1.04 ± 0.025
- ATCGTTTGCA — within error, 1.02 ± 0.022
- TTTTTCGTGA — within error, 1.13 ± 0.15
- ATCCTTGATA — within error, 1.03 ± 0.016
- AACTGAGTTT — within error, 1.008 ± 0.0015
- GTTGGGATGT — within error, 0.996 ± 0.015
- CTTAACCTTC — higher, 2.43 ± 0.31
- GGATGTAAGT — within error, 0.97 ± 0.017
- TTAAGTTATA — within error, 1.018 ± 0.0099
